Key:
[1] = test system: MS1 mouse endothelial cells; assay: MS1 endothelial cells infected with adenovirus expressing WT-TIMP3 or TIMP3Cys1-Ser: apoptosis and [3H]thymidine incorporation; type: cell-based
Protocol: (§1) MS1 mouse endothelial cells\(American Type Culture Collection, Manassas, Va.) were cultured until 80% confluent and infected with adenovirus as described. Cells were infected at 50 or 200 plaque-forming units per cell for 18 h. Medium was then replaced with fresh complete medium and left for 48 h until analysis.
A modified Boyden chamber assay for migration and proliferation assays were carried out as described.

MMPs [2] = assay: Reverse zymography of ECM extracts (MMP-inhibitory activity); type: biochemical; conditions: MS1 cells infected with Rad-TIMP3Cys1-Ser vs wild-type
Protocol: Conditioned medium, cell lysates and ECM fractions from transfected cells were prepared. Equal amounts of protein were loaded onto a 12% gel with 1 mg/ml gelatin plus RPE cell-conditioned medium, as a source of MMPs, for reverse zymography and processed as described.

MS1 endothelial cells = assay: 125I-VEGF165 binding to adenovirus-infected MS1 endothelial cells; set-up: species or system mouse; conditions: cells infected with adenovirus expressing TIMP3Cys1-Ser
Protocol: Radioligand binding is expressed as percent binding and is the mean±s.e.m. of triplicate samples. […] All values are expressed as mean±s.e.m. of triplicate samples. […] Binding is expressed as mean±s.e.m. Data is shown as percent binding of triplicate samples, with binding to PAE-KDR cells in the absence of any inhibitor as 100%. *, P<0.01. […] P<0.01.
as §1

PAEKDR cells [3] = assay: VEGF-stimulated actin reorganization / membrane ruffles; type: cell-based, porcine; conditions: 50 ng/ml VEGF for 15 min
Protocol: (§2) For immunostaining, subconfluent cells cultured on Falcon cultureslides (BD, Biosciences) were used. For surface KDR detection, cells were fixed in 1% paraformaldehyde for 10 min at 4° C. Following blocking with 1% BSA cells were incubated with anti-extracellular VEGFR-2 monoclonal antibody for 1 h at room temperature. Surface KDR was detected with biotinylated anti-mouse […] (1:1000) and Texas Red avidin D (1:1500) using standard procedures. […] The cells were fixed with 3.7% paraformaldehyde in PBS for 30 min at 4° C. and permeabilized with 0.2 Triton X-100 for 20 min at room temperature. Following rinsing with PBS the cells were incubated with fluorescein isothiocyanate (FITC)-labeled phalloidin in PBS (0.66 μg/ml, Sigma) for 20 min at room temperature washed with PBS and analyzed by fluorescence microscopy.

PAEKDR cells [4] = assay: VEGF-stimulated migration (modified Boyden chamber) of transfected PAEKDR cells; type: cell-based, porcine; conditions: VEGF 50 ng/ml
Protocol: A modified Boyden chamber assay was carried out as described previously 34. Briefly, 8.0 μm pore PVPF polycarbonate membranes were pre-coated with 100 μg/ml collagen type I in 0.2 N acetic acid (Cohesion technologies, INC. Pala Alto, Calif.). […] Chamber was then incubated for 4 hrs at 37° C. in a 5% CO2 humidified incubator. Cells remaining on the top of the filter were removed. Cells on the bottom surface of the filter were fixed, stained and mounted. The number of migrating cells per well was counted microscopically.

PAEKDR cells [5] = assay: Tube formation assay in type 1 collagen gels; type: cell-based, porcine; conditions: 50 ng/ml VEGF; three-dimensional collagen gels
Protocol: Type 1 collagen was mixed with 10×DMEM and 0.1 M NaOH (8:1:1), adjusted to a solution containing 10 μg/ml growth factor reduced matrigel matrix (BD, Biosciences), and then distributed in 48-well dishes. […] After 4 h of incubation at 37° C., a second layer of collagen was added, and cultures were kept under the same conditions as above described. Tube formation was examined using a phase-contrast microscopy at the indicated time points.

soluble VEGFR-2 = assay: Soluble VEGFR-2 (sKDR) in conditioned medium (ELISA); type: cell-based, human; conditions: mutant cells; data not shown
MMPs [6] = assay: Reverse zymography of ECM and CM of transfected PAEKDR cells; type: biochemical; conditions: PAEKDR cells expressing WT or mutant TIMP3
Protocol: Conditioned medium, cell lysates and ECM fractions from transfected cells were prepared as described previously (Qi et al., 2002). Equal amounts of protein were loaded onto a 12% gel with 1 mg/ml gelatin plus RPE cell-conditioned media, as a source of MMPs, for reverse zymography and processed as described previously (Pavloff et al., 1992).

KDR = target: T1, KDR (Homo sapiens, UniProt P35968); assay: VEGF-stimulated KDR tyrosine phosphorylation in membrane fractions (Western blot); type: cell-based; conditions: mutant cells; data not shown
T1 construct: To determine whether these receptor isoforms represent full-length VEGFR-2; expressed in transfected cells; host or cells: porcine aortic endothelial (PAE) cells
T1 sequence (P35968 20-1356): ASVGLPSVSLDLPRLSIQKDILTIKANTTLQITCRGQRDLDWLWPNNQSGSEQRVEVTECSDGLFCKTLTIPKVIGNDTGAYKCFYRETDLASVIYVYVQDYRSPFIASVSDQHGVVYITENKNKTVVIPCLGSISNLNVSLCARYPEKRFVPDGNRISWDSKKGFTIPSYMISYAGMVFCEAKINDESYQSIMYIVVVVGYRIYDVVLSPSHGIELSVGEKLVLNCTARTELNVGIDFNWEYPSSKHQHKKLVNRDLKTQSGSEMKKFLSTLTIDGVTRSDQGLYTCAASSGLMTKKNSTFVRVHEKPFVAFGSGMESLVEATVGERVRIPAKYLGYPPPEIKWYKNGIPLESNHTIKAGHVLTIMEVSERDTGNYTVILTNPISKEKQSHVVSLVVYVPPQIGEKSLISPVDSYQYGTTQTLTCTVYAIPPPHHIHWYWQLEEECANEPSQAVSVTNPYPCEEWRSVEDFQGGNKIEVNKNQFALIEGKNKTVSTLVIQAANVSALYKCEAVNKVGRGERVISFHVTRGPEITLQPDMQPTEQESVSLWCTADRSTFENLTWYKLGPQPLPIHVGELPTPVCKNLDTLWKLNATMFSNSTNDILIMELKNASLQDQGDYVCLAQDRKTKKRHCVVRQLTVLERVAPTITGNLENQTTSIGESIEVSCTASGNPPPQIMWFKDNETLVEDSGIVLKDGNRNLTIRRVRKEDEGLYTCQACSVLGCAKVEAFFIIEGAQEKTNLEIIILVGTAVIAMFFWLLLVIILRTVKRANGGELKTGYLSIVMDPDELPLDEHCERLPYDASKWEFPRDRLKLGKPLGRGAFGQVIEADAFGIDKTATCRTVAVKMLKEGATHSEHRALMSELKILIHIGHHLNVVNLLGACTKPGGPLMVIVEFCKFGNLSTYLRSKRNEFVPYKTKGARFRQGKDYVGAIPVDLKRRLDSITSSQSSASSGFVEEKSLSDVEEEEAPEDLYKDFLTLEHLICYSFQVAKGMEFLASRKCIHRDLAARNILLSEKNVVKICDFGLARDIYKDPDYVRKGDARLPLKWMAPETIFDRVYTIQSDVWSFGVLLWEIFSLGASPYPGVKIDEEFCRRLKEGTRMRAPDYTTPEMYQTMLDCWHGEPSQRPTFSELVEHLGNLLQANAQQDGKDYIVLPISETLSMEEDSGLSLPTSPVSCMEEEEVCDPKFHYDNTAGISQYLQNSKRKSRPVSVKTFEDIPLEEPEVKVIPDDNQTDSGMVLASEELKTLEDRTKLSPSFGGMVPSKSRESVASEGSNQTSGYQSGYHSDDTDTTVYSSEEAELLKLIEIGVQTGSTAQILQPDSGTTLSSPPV
Protocol: 2 day serum free conditioned medium (CM) was collected from subconfluent cells cultured on six-well plates (Costar). In some cases the CM was further concentrated with heparin-agarose gels (Bio-rad). The cell monolayer was dislodged from the culture plates following a 10 min incubation in Ca2+, Mg2+ free phosphate buffered saline (PBS) containing 2.5 mM EDTA. After several rinses in PBS and water, the ECM was scraped in a small volume of electrophoresis sample buffer without reducing agent for analyses. Plasma membrane (PM) fractions were prepared from cells centrifuged at 500 g and 4° C. for 5 min The supernatant was discarded and the cell pellets were resuspended in PBS containing protease inhibitors, lysed with a 26-gauge syringe needle, and centrifuged at 3,000 g at 4° C. for 15 minutes. The supernatant was centrifuged at […] at 4° C. for 1 hr. The PM pellets were suspended in lysis buffer containing protease inhibitors. In some instances the membrane fraction of cells was prepared using ProteoExtract Subcellular Proteome Extaction Kit (EMD Biosciences, Inc).
Cell fractions or immunoprecipitates of the lysates with the indicated antibodies were subjected to SDS-PAGE. Proteins were detected with either a HRP-conjugated anti-rabbit or anti mouse IgG antibody (Amersham Pharmacia Biotech., Piscataway, N.J.) followed by ECL. […]

VEGFR-2 (KDR) = target: T2, VEGFR-2 (KDR) (Homo sapiens, UniProt P35968); assay: [125I]VEGF binding in transfected PAEKDR cell lines; conditions: PAEKDR cells expressing mutant TIMP3 vs vector
T2 construct: To determine whether these receptor isoforms represent full-length VEGFR-2; expressed in transfected cells; host or cells: porcine aortic endothelial (PAE) cells
T2 sequence (P35968 20-1356): as above
Protocol: PAEKDR cells were transfected with TIMP3 cDNA or empty vector using Lipofectamine reagent (Gibco-BRL Rockville, Md.). Stable clones were isolated using Hygromycin selection.
After washing, the cell monolayers were solubilized with lysis buffer (20 mM Tris HCl pH 7.5, 1% triton X 100 and 10% glycerol), and the radioactivity measured in a gamma counter.

[7] = test system: ERK1 (p44) and ERK2 (p42); assay: VEGF-stimulated ERK1/2 phosphorylation in transfected PAEKDR cells (Western blot); type: cell-based; conditions: mutant cells; data not shown
Protocol: Cell fractions or immunoprecipitates of the lysates with the indicated antibodies were subjected to SDS-PAGE. Proteins were detected with either a HRP-conjugated anti-rabbit or anti mouse IgG antibody (Amersham Pharmacia Biotech., Piscataway, N.J.) followed by ECL. The blots were restripped with Western ReProbe™ solution (Genotech) for 30 minutes and reprobed as indicated.
Activation of MAP kinase is a known activated VEGFR-2 downstream signaling event. We measured the phosphorylation of two MAP kinases, ERK1 (p44) and ERK2 (p42) by western blot analysis of membrane fractions in WT and mutant ECs.

surface KDR = assay: Surface KDR immunofluorescence staining; type: cell-based; conditions: clone KDR-2 antibody; data not shown
Protocol: as §2

B1: TIMP3Cys1-Ser: recombinant TIMP3 protein with reduced metalloproteinase-inhibitory activity, expressed from adenovirus Rad66 (protein)
chain: STCSPSHPQDAFCNSDIVIRAKVVGKKLVKEGPFGTLVYTIKQMKMYRGFTKMPHVQYIHTEASESLCGLKLEVNKYQYLLTGRVYDGKMYTGLCNFVERWDQLTLSQRKGLNYRYHLGCNCKIKSCYYLPCFVTSKNECLWTDMLSNFGYPGYQSKHYACIRQKGGYCSWYRGWAPPDKSIINATDP
[1]; MS1 cells infected with wild-type or mutant virus
  apoptosis after adenovirus infection: No apoptosis was observed
[1]; cells infected with Rad-TIMP3Cys1-Ser
  proliferative response to VEGF ([3H]thymidine incorporation): still inhibited in their proliferative response to VEGF
MMPs [2]
  metalloproteinase-inhibitory activity (reverse zymography of ECM extracts): reduced metalloproteinase-inhibitory activity
MS1 endothelial cells
  binding of VEGF to cell surfaces: reduced binding of VEGF to its cell surfaces

B2: mutant TIMP3: Sorsby fundus dystrophy-related S156C mutant TIMP3 expressed in PAEKDR endothelial cells (protein)
chain: CTCSPSHPQDAFCNSDIVIRAKVVGKKLVKEGPFGTLVYTIKQMKMYRGFTKMPHVQYIHTEASESLCGLKLEVNKYQYLLTGRVYDGKMYTGLCNFVERWDQLTLSQRKGLNYRYHLGCNCKIKSCYYLPCFVTSKNECLWTDMLSNFGYPGYQCKHYACIRQKGGYCSWYRGWAPPDKSIINATDP
PAEKDR cells [3]
  VEGF-stimulated formation of membrane ruffles: a majority of mutant cells showed more striking edge ruffles
PAEKDR cells [4]
  VEGF-stimulated migration of cells expressing TIMP3 variant: accentuated migratory response towards VEGF
PAEKDR cells [5]
  VEGF-stimulated tube formation: forming extensive tubular networks, but by day 5 the tubular structures started to regress and collapse
Soluble VEGFR-2
  cleaved sVEGFR-2 in the CM, more than mock cells: 7- to 8 fold
MMPs [6]
  MMP inhibitory activity in ECM and CM (reverse zymography): minimal MMP inhibitory activity
KDR
  level of phosphorylated KDR after VEGF stimulation vs mock cells: ~2 fold
VEGFR-2 (KDR)
  increase in [125I] VEGF binding: 2-3 fold
[7]
  increase of VEGF-stimulated ERK1/2 phosphorylation: 2-3 fold
Surface KDR
  surface KDR labeling relative to empty vector or WT-TIMP3 cells: increased fluorescent labeling for surface KDR

Reference: patent US8431396B2, “Anti-angiogenic peptides” (The Cleveland Clinic Foundation, priority 2003, dated 2013)
